The values below come from the supplement of paper PMC11246515.

± gives the standard deviation of the averaged measurements.

This series in a line: total protein half-life in vivo (active degradation + dilution); higher = more stable protein.
The mark [1] stands for this setting: E. coli NCM3722 delta-clpP delta-lon delta-hslV, growth: N-lim chemostat, doubling time 6 h.
Where [2] appears, read: E. coli NCM3722 delta-hslV, growth: N-lim chemostat, doubling time 6 h.
[3] abbreviates: E. coli NCM3722 delta-lon, growth: N-lim chemostat, doubling time 6 h.
Where [4] appears, read: wild type E. coli NCM3722, growth: C-lim chemostat, doubling time 3 h.
Setting [5] is: wild type E. coli NCM3722, growth: C-lim chemostat, doubling time 6 h.
[6] abbreviates: wild type E. coli NCM3722, growth: N-lim chemostat, doubling time 6 h.
The mark [7] stands for this setting: wild type E. coli NCM3722, growth: P-lim chemostat, doubling time 12 h.
[8] abbreviates: E. coli NCM3722 delta-smpB, growth: N-lim chemostat, doubling time 6 h.
The mark [9] stands for this setting: wild type E. coli NCM3722, growth: C-lim chemostat, doubling time 12 h.
The mark [10] stands for this setting: wild type E. coli NCM3722, growth: P-lim chemostat, doubling time 6 h.
[11] abbreviates: E. coli NCM3722 delta-clpP, growth: N-lim chemostat, doubling time 6 h.
The mark [12] stands for this setting: wild type E. coli NCM3722, growth: N-lim chemostat, doubling time 12 h.

“MDDCGAILHNIETKWLYDFLTLEKCRNFSQAAVSRNVSQPAFSRRIRALEQAIGVELFNRQVTPLQLSEQGKIFHSQIRHLLQQLESNLAELRGGSDYAQRKIKIAAAHSLSLGLLPSIISQMPPLFTWAIEAIDVDEAVDKLREGQSDCIFSFHDEDLLEAPFDHIRLFESQLFPVCASDEHGEALFNLAQPHFPLLNYSRNSYMGRLINRTLTRHSELSFSTFFVSSMSELLKQVALDGCGIAWLPEYAIQQEIRSGKLVVLNRDELVIPIQAYAYRMNTRMNPVAERFWRELRELEIVLS”: the “total protein half-life in vivo” value under setting [1] amounted to 5 ± 0.22 h; the “total protein half-life in vivo” value under setting [2] came out at 4.98 h; the “total protein half-life in vivo” value under setting [3] came out at 4.5 h; the “total protein half-life in vivo” value under setting [4] is 2.52 h; the “total protein half-life in vivo” value under setting [5] came to 5.18 h; the “total protein half-life in vivo” value under setting [6] was determined as 5.51 h. For the same sequence, under setting [7], the “total protein half-life in vivo” value is 10.4 ± 0.27 h.

On to “MSQVQFSHNPLFCIDIIKTYKPDFTPRVAFILGSGLGALADQIENAVAISYEKLPGFPVSTVHGHAGELVLGHLQGVPVVCMKGRGHFYEGRGMTIMTDAIRTFKLLGCELLFCTNAAGSLRPEVGAGSLVALKDHINTMPGTPMVGLNDDRFGERFFSLANAYDAEYRALLQKVAKEEGFPLTEGVFVSYPGPNFETAAEIRMMQIIGGDVVGMSVVPEVISARHCDLKVVAVSAITNMAEGLSDVKLSHAQTLAAAELSKQNFINLICGFLRKIA”, for which the “total protein half-life in vivo” value under setting [1] is 5.56 ± 0.68 h; the “total protein half-life in vivo” value under setting [8] is 1.93 ± 0.26 h; the “total protein half-life in vivo” value under setting [4] was determined as 2 h; the “total protein half-life in vivo” value under setting [9] stood at 6.43 h; the “total protein half-life in vivo” value under setting [10] stood at 2.34 h; the “total protein half-life in vivo” value under setting [7] was 5.82 h.

“MAEKKQWHETLHDQFGQYFAVDNVLYHEKTDHQDLIIFENAAFGRVMALDGVVQTTERDEFIYHEMMTHVPLLAHGHAKHVLIIGGGDGAMLREVTRHKNVESITMVEIDAGVVSFCRQYLPNHNAGSYDDPRFKLVIDDGVNFVNQTSQTFDVIISDCTDPIGPGESLFTSAFYEGCKRCLNPGGIFVAQNGVCFLQQEEAIDSHRKLSHYFSDVGFYQAAIPTYYGGIMTFAWATDNDALRHLSTEIIQARFLASGLKCRYYNPAIHTAAFALPQYLQDALASQPS”: the “total protein half-life in vivo” value runs as follows: under setting [11], 4.62 ± 0.2 h; under setting [2], 4.51 ± 0.12 h; under setting [3], 4.89 ± 0.27 h; under setting [8], 4.49 ± 0.41 h; under setting [5], 7.06 ± 0.82 h; under setting [9], 9.58 ± 0.14 h. For the same sequence, the “total protein half-life in vivo” value under setting [6] was 4.21 ± 0.35 h, the “total protein half-life in vivo” value under setting [12] stood at 7.27 ± 0.36 h, the “total protein half-life in vivo” value under setting [10] came out at 5.86 ± 0.46 h and the “total protein half-life in vivo” value under setting [7] amounted to 13 ± 2.3 h.

As for “MDYFTLFGLPARYQLDTQALSLRFQDLQRQYHPDKFASGSQAEQLAAVQQSATINQAWQTLRHPLMRAEYLLSLHGFDLASEQHTVRDTAFLMEQLELREELDEIEQAKDEARLESFIKRVKKMFDTRHQLMVEQLDNETWDAAADTVRKLRFLDKLRSSAEQLEEKLLDF [P0A6L9]”, the “total protein half-life in vivo” value runs as follows: under setting [1], 4.89 ± 0.7 h; under setting [11], 3.99 ± 0.75 h; under setting [2], 3.26 ± 0.27 h; under setting [3], 4.06 ± 0.18 h; under setting [8], 3.04 ± 0.18 h; under setting [4], 2.9 ± 0.23 h. Besides, the “total protein half-life in vivo” value is, setting by setting: under setting [5], 4.74 ± 0.099 h; under setting [9], 9.84 ± 1 h; under setting [6], 3.07 ± 0.24 h; under setting [12], 4.57 ± 0.19 h; under setting [10], 5.45 ± 0.78 h; under setting [7], 9.39 ± 0.82 h.

Regarding “MTQYWLGLDCGGSWLKAGLYDREGREAGVQRLPLCALSPQPGWAERDMAELWQCCMAVIRALLTHSGVSGEQIVGIGISAQGKGLFLLDKNDKPLGNAILSSDRRAMEIVRRWQEDGIPEKLYPLTRQTLWTGHPVSLLRWLKEHEPERYAQIGCVMMTHDYLRWCLTGVKGCEESNISESNLYNMSLGEYDPCLTDWLGIAEINHALPPVVGSAEICGEITAQTAALTGLKAGTPVVGGLFDVVSTALCAGIEDEFTLNAVMGTWAVTSGITRGLRDGEAHPYVYGRYVNDGEFIVHEASPTSSGNLEWFTAQWGEISFDEINQAVASLPKAGGDLFFLPFLYGSNAGLEMTSGFYGMQAIHTRAHLLQAIYEGVVFSHMTHLNRMRERFTDVHTLRVTGGPAHSDVWMQMLADVSGLRIELPQVEETGCFGAALAARVGTGVYHNFSEAQRDLRHPVRTLLPDMTAHQLYQKKYQRYQHLIAALQGFHARIKEHTL”, the “total protein half-life in vivo” value runs as follows: under setting [5], 4.05 ± 1.2 h; under setting [9], 7.19 ± 1.2 h.

Turning to “MAIHNRAGQPAQQSDLINVAQLTAQYYVLKPEAGNAEHAVKFGTSGHRGSAARHSFNEPHILAIAQAIAEERAKNGITGPCYVGKDTHALSEPAFISVLEVLAANGVDVIVQENNGFTPTPAVSNAILVHNKKGGPLADGIVITPSHNPPEDGGIKYNPPNGGPADTNVTKVVEDRANALLADGLKGVKRISLDEAMASGHVKEQDLVQPFVEGLADIVDMAAIQKAGLTLGVDPLGGSGIEYWKRIGEYYNLNLTIVNDQVDQTFRFMHLDKDGAIRMDCSSECAMAGLLALRDKFDLAFANDPDYDRHGIVTPAGLMNPNHYLAVAINYLFQHRPQWGKDVAVGKTLVSSAMIDRVVNDLGRKLVEVPVGFKWFVDGLFDGSFGFGGEESAGASFLRFDGTPWSTDKDGIIMCLLAAEITAVTGKNPQEHYNELAKRFGAPSYNRLQAAATSAQKAALSKLSPEMVSASTLAGDPITARLTAAPGNGASIGGLKVMTDNGWFAARPSGTEDAYKIYCESFLGEEHRKQIEKEAVEIVSEVLKNA”, the “total protein half-life in vivo” value by setting is: under setting [1], 5.51 ± 0.17 h; under setting [11], 5.19 ± 0.29 h; under setting [2], 5.82 ± 0.08 h; under setting [3], 5.31 ± 0.31 h; under setting [8], 5.64 ± 0.31 h; under setting [4], 2.98 ± 0.16 h. Moreover, the “total protein half-life in vivo” value reads like this: under setting [9], 9.719 ± 0.083 h; under setting [6], 5.2 ± 0.099 h; under setting [12], 9.34 ± 0.22 h; under setting [10], 5.905 ± 0.033 h; under setting [7], 11.6 ± 0.12 h.

Turning to “MFTIKTDDLTHPAVQALVAYHISGMLQQSPPESSHALDVQKLRNPTVTFWSVWEGEQLAGIGALKLLDDKHGELKSMRTAPNYLRRGVASLILRHILQVAQDRCLHRLSLETGTQAGFTACHQLYLKHGFADCEPFADYRLDPHSRFLSLTLCENNELP”, the “total protein half-life in vivo” value came out at 1.46 ± 0.029 h under setting [11]; 0.809 h under setting [2]; 0.314 h under setting [3]; 0.854 ± 0.023 h under setting [8]; 1.03 ± 0.61 h under setting [6]; 1.92 h under setting [12].

Turning to “MLILKNVTAVQLHPAKVQEGVDIAIENDVIVAIGDALTQRYPDASFKEMHGRIVMPGIVCSHNHFYSGLSRGIMANIAPCPDFISTLKNLWWRLDRALDEESLYYSGLICSLEAIKSGCTSVIDHHASPAYIGGSLSTLRDAFLKVGLRAMTCFETTDRNNGIKELQEGVEENIRFARLIDEAKKATSEPYLVEAHIGAHAPFTVPDAGLEMLREAVKATGRGLHIHAAEDLYDVSYSHHWYGKDLLARLAQFDLIDSKTLVAHGLYLSKDDITLLNQRDAFLVHNARSNMNNHVGYNHHLSDIRNLALGTDGIGSDMFEEMKFAFFKHRDAGGPLWPDSFAKALTNGNELMSRNFGAKFGLLEAGYKADLTICDYNSPTPLLADNIAGHIAFGMGSGSVHSVMVNGVMVYEDRQFNFDCDSIYAQARKAAASMWRRMDALA”, the “total protein half-life in vivo” value reads like this: under setting [1], 3.15 h; under setting [4], 2.62 h; under setting [5], 4.3 h; under setting [9], 11.2 h.
